According to article doi:10.1101/2024.12.13.628402 (bioRxiv, 2024):

Molecular target: T1, His6-YidC (E. coli, UniProt P25714 1-548)
T1 sequence (looked up): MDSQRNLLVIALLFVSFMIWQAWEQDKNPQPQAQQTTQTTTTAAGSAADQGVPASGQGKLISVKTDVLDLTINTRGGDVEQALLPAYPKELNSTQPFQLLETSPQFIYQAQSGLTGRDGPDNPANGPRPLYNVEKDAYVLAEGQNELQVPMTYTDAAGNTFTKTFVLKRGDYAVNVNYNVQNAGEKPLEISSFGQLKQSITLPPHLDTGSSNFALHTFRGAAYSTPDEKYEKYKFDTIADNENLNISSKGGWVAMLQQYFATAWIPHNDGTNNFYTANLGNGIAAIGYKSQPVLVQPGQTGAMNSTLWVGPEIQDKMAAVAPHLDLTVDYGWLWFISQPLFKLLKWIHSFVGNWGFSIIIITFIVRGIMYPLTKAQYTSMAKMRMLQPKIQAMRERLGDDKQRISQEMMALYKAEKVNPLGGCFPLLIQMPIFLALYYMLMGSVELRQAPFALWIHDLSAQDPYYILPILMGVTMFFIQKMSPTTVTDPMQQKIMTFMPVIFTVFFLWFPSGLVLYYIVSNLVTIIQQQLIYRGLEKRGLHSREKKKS
Assay: native gel or EMSA

binding result: binds
B1: YibN-His6 (natural protein, E. coli, UniProt P0AG27 1-143, looked up)
chain: MQEIMQFVGRHPILSIAWIALLVAVLVTTFKSLTSKVKVITRGEATRLINKEDAVVVDLRQRDDFRKGHIAGSINLLPSEIKANNVGELEKHKDKPVIVVDGSGMQCQEPANALTKAGFAQVFVLKEGVAGWAGENLPLVRGK
